Laboratory results reported in US20170355766A1 (Xencor, published 2017).
Substitutions are numbered along the chain they refer to. Names and notes keep the numbering of the source.

T1: FcγRIIaR (human, UniProt P12318)
T1 construct: recombinant receptor protein with 6xHis and GST tags; also called R131 FcγRIIa
T1 sequence (receptor, looked up): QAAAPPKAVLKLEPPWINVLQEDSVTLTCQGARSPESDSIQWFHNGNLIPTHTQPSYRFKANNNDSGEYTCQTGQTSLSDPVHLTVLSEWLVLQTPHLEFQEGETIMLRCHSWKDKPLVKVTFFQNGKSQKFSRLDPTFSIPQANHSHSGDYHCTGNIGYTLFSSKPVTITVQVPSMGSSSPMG

T2: human FcγRIIb receptor protein (R&D Systems) (human, UniProt P31994 46-217)
T2 construct: Analyte injected over antibodies captured on a protein A/G chip (Biacore); also called CD32b
T2 sequence (looked up): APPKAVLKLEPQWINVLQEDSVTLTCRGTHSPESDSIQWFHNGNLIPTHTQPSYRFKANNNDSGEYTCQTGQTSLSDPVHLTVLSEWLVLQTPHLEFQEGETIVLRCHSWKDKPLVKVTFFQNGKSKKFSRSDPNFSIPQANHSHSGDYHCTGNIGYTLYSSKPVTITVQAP

B1: D265E (antibody, human IgG1, kappa)
heavy: not shown
light: DIVMTQSPATLSLSPGERATLSCRSSKSLQNVNGNTYLYWFQQKPGQSPQLLIYRMSNLNSGVPDRFSGSGSGTEFTLTISSLEPEDFAVYYCMQHLEYPITFGAGTKLEIKRTVAAPSVFIFPPSDEQLKSGTASVVCLLNNFYPREAKVQWKVDNALQSGNSQESVTEQDSKDSTYSLSSTLTLSKADYEKHKVYACEVTHQGLSSPVTKSFNRGEC
notes: HuAM4G7 IgG1 Fc variant
B2: G236Q (antibody, human IgG1, kappa)
heavy: not shown
light: B1 light
notes: HuAM4G7 IgG1 Fc variant
B3: L234W/G236D/S239E/S267E (antibody, human IgG1, kappa)
heavy: EVQLVESGGGLVKPGGSLKLSCAASGYTFTSYVMHWVRQAPGKGLEWIGYINPYNDGTKYNEKFQGRVTISSDKSISTAYMELSSLRSEDTAMYYCARGTYYYGTRVFDYWGQGTLVTVSSASTKGPSVFPLAPSSKSTSGGTAALGCLVKDYFPEPVTVSWNSGALTSGVHTFPAVLQSSGLYSLSSVVTVPSSSLGTQTYICNVNHKPSNTKVDKKVEPKSCDKTHTCPPCPAPEWLDGPEVFLFPPKPKDTLMISRTPEVTCVVVDVEHEDPEVKFNWYVDGVEVHNAKTKPREEQYNSTYRVVSVLTVLHQDWLNGKEYKCKVSNKALPAPIEKTISKAKGQPREPQVYTLPPSREEMTKNQVSLTCLVKGFYPSDIAVEWESNGQPENNYKTTPPVLDSDGSFFLYSKLTVDKSRWQQGNVFSCSVMHEALHNHYTQKSLSLSPGK
light: B1 light
notes: HuAM4G7 IgG1 Fc variant
B4: L234W/S239E/S267E (antibody, human IgG1, kappa)
heavy: B3 heavy with D240G
light: B1 light
notes: HuAM4G7 IgG1 Fc variant
B5: S239N (antibody, human IgG1, kappa)
heavy: not shown
light: B1 light
notes: HuAM4G7 IgG1 Fc variant
B6: G237S (antibody, human IgG1, kappa)
heavy: not shown
light: B1 light
notes: HuAM4G7 IgG1 Fc variant
B7: S267E/N325L (antibody, human IgG1, kappa)
heavy: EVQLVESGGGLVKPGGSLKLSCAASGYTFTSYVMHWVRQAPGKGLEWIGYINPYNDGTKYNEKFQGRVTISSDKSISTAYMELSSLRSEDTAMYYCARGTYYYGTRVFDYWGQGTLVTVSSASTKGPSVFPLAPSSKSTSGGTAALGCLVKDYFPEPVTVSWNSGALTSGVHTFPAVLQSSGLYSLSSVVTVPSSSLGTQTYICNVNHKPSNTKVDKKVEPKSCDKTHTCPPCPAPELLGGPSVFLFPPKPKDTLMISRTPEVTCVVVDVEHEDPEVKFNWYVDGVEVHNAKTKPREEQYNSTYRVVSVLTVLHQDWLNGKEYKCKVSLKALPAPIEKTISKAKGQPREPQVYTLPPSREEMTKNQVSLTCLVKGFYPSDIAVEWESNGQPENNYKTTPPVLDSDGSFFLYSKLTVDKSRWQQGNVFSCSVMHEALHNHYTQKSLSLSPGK
light: B1 light
notes: HuAM4G7 IgG1 Fc variant
B8: G237Q (antibody, human IgG1, kappa)
heavy: not shown
light: B1 light
notes: HuAM4G7 IgG1 Fc variant
B9: P329E (antibody, human IgG1, kappa)
heavy: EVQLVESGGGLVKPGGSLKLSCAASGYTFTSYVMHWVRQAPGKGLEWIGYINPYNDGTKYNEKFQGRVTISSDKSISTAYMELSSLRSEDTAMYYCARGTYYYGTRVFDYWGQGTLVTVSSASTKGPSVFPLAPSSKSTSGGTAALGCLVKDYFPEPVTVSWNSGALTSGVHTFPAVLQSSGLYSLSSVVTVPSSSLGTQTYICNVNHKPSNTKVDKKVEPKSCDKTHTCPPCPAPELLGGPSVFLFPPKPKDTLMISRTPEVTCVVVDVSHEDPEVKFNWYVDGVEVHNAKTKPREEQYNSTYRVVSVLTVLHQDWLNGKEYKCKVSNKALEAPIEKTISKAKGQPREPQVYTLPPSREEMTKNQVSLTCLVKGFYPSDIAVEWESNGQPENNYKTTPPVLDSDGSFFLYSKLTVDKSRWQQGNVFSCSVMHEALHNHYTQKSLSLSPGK
light: B1 light
notes: HuAM4G7 IgG1 Fc variant
B10: S298D (antibody, human IgG1, kappa)
heavy: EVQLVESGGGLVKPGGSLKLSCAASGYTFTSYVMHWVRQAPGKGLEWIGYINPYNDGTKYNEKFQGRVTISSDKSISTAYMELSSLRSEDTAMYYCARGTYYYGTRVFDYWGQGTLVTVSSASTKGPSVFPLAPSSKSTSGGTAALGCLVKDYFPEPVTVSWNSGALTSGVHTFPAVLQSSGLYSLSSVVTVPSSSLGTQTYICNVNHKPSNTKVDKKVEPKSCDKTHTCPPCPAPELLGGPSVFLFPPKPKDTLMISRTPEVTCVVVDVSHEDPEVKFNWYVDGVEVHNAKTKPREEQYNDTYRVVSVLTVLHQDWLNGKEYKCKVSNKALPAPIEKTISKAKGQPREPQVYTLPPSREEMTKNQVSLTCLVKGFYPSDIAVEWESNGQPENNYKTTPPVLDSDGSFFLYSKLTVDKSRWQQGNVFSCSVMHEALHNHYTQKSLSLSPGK
light: B1 light
notes: HuAM4G7 IgG1 Fc variant
B11: S267E/A327D (antibody, human IgG1, kappa)
heavy: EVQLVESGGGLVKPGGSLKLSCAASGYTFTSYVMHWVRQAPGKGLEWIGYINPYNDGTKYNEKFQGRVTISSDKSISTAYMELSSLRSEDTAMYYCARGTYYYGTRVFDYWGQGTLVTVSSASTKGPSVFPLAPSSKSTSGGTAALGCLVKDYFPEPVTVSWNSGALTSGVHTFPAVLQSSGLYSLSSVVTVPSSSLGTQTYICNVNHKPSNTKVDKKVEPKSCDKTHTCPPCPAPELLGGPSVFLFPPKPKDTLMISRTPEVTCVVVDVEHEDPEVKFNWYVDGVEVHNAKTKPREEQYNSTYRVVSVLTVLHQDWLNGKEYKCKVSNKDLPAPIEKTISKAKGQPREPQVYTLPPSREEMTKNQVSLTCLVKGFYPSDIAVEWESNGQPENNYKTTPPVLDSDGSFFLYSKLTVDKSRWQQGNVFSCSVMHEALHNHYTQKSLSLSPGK
light: B1 light
notes: HuAM4G7 IgG1 Fc variant
B12: G237Y (antibody, human IgG1, kappa)
heavy: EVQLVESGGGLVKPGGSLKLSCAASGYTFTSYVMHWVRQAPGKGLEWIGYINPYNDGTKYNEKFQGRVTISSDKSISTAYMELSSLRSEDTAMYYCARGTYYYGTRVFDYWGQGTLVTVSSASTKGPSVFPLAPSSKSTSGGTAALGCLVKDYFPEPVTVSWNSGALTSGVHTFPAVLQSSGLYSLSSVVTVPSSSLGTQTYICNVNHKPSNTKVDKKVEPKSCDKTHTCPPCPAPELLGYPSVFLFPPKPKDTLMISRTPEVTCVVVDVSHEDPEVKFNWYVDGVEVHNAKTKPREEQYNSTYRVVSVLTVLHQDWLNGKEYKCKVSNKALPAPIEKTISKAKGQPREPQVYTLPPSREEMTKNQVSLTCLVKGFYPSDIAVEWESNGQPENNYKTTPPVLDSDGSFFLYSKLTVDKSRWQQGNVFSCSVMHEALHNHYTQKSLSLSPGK
light: B1 light
notes: HuAM4G7 IgG1 Fc variant
B13: G236P (antibody, human IgG1, kappa)
heavy: not shown
light: B1 light
notes: HuAM4G7 IgG1 Fc variant
B14: L235R (antibody, human IgG1, kappa)
heavy: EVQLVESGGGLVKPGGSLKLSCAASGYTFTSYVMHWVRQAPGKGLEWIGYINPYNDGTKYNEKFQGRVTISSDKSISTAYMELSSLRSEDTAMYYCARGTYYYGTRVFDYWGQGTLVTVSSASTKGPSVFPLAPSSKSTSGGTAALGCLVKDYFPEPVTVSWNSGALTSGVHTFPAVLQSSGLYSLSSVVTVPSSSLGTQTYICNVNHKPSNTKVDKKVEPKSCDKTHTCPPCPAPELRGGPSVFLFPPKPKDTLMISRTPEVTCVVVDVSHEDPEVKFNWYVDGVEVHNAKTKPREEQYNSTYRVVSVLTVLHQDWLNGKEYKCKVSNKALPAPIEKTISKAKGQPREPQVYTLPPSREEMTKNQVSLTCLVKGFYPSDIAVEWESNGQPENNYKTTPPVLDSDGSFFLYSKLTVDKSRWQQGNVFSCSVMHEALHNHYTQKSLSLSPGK
light: B1 light
notes: HuAM4G7 IgG1 Fc variant
B15: G236M (antibody, human IgG1, kappa)
heavy: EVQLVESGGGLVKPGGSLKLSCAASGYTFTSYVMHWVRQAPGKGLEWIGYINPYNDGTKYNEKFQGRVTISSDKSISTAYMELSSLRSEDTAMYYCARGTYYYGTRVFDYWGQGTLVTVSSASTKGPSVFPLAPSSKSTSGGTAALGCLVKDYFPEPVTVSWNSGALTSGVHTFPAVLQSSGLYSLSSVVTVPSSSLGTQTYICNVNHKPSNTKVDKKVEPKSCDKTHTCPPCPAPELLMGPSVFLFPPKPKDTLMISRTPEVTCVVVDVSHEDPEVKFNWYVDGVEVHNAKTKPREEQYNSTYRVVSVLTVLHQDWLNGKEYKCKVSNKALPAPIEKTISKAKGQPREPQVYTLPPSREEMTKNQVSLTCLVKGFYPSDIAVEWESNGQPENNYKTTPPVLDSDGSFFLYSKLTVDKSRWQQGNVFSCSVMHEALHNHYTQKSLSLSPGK
light: B1 light
notes: HuAM4G7 IgG1 Fc variant
B16: L235T/S267E (antibody, human IgG1, kappa)
heavy: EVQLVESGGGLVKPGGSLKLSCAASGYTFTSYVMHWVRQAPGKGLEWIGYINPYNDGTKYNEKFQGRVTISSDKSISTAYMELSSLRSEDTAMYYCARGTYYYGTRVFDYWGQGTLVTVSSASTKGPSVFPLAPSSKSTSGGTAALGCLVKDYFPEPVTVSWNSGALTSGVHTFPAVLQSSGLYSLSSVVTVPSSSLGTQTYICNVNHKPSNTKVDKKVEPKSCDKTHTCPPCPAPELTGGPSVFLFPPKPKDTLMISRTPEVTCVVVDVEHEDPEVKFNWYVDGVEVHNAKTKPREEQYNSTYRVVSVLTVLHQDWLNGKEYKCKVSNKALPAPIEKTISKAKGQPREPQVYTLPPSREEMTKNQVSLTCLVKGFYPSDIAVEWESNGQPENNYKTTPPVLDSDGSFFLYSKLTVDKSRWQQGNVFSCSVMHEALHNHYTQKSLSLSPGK
light: B1 light
notes: HuAM4G7 IgG1 Fc variant
B17: G236W (antibody, human IgG1, kappa)
heavy: not shown
light: B1 light
notes: HuAM4G7 IgG1 Fc variant
B18: G236H (antibody, human IgG1, kappa)
heavy: not shown
light: B1 light
notes: HuAM4G7 IgG1 Fc variant
B19: G236E/S267E (antibody, human IgG1, kappa)
heavy: not shown
light: B1 light
notes: HuAM4G7 IgG1 Fc variant
B20: S267E/L328H (antibody, human IgG1, kappa)
heavy: not shown
light: B1 light
notes: HuAM4G7 IgG1 Fc variant
B21: H268N (antibody, human IgG1, kappa)
heavy: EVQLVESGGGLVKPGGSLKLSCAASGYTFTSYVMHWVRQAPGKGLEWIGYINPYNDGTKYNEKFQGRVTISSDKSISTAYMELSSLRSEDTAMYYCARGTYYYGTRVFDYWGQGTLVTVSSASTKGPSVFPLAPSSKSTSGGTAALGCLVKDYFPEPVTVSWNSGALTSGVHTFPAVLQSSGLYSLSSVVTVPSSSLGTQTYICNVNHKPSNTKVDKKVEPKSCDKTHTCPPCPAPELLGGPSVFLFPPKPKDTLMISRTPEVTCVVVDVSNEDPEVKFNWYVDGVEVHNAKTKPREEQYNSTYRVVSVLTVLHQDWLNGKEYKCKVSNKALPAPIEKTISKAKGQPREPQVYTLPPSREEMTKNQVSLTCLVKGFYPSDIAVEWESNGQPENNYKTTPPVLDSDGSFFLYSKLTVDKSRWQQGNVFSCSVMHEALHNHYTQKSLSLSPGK
light: B1 light
notes: HuAM4G7 IgG1 Fc variant
B22: S239Q (antibody, human IgG1, kappa)
heavy: not shown
light: B1 light
notes: HuAM4G7 IgG1 Fc variant
B23: L235H (antibody, human IgG1, kappa)
heavy: not shown
light: B1 light
notes: HuAM4G7 IgG1 Fc variant
B24: L234I (antibody, human IgG1, kappa)
heavy: not shown
light: B1 light
notes: HuAM4G7 IgG1 Fc variant
B25: L234S (antibody, human IgG1, kappa)
heavy: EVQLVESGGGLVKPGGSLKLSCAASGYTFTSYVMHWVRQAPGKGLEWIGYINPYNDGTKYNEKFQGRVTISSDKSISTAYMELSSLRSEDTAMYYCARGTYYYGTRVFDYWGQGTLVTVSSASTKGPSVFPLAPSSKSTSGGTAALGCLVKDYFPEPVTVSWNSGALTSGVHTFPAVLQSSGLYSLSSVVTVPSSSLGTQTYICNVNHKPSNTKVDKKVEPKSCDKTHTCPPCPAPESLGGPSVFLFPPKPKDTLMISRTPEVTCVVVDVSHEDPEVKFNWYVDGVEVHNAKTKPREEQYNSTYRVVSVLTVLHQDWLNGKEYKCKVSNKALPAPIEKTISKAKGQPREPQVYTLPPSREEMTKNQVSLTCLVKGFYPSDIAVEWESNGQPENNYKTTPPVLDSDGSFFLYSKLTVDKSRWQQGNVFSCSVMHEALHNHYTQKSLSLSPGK
light: B1 light
notes: HuAM4G7 IgG1 Fc variant
B26: V266D (antibody, human IgG1, kappa)
heavy: not shown
light: B1 light
notes: HuAM4G7 IgG1 Fc variant
B27: L234Y (antibody, human IgG1, kappa)
heavy: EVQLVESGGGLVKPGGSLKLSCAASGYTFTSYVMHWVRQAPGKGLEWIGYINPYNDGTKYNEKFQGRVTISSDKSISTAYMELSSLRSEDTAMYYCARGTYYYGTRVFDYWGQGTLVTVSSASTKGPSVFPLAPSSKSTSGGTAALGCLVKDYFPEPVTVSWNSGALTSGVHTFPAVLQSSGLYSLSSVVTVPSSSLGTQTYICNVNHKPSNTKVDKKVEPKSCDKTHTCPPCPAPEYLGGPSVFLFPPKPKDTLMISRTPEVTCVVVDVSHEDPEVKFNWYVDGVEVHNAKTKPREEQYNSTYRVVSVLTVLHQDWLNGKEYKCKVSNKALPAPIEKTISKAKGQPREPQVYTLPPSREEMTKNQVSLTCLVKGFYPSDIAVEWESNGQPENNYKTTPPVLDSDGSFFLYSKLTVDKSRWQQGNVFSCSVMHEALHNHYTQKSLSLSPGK
light: B1 light
notes: HuAM4G7 IgG1 Fc variant
B28: L234Q (antibody, human IgG1, kappa)
heavy: not shown
light: B1 light
notes: HuAM4G7 IgG1 Fc variant
B29: L234D/G236N/S267E (antibody, human IgG1, kappa)
heavy: B3 heavy with W238D, D240N, E243S
light: B1 light
notes: HuAM4G7 IgG1 Fc variant
B30: S267E/L328I (antibody, human IgG1, kappa)
heavy: not shown
light: B1 light
notes: HuAM4G7 IgG1 Fc variant
B31: L235E (antibody, human IgG1, kappa)
heavy: not shown
light: B1 light
notes: HuAM4G7 IgG1 Fc variant
B32: L234G (antibody, human IgG1, kappa)
heavy: not shown
light: B1 light
notes: HuAM4G7 IgG1 Fc variant
B33: L234V (antibody, human IgG1, kappa)
heavy: not shown
light: B1 light
notes: HuAM4G7 IgG1 Fc variant
B34: G237V (antibody, human IgG1, kappa)
heavy: not shown
light: B1 light
notes: HuAM4G7 IgG1 Fc variant
B35: L234P (antibody, human IgG1, kappa)
heavy: not shown
light: B1 light
notes: HuAM4G7 IgG1 Fc variant

Columns and labels:
Experiment in all cases: SPR (Biacore)
FcγRIIaR = target: T1, FcγRIIaR
[1] = target: T2, human FcγRIIb receptor protein (R&D …)
[2] = target: T3, human FcγRI receptor protein (R&D Systems) (human, UniProt P12314 16-288)
T3 construct: also called CD64

Row | Binder | Fold FcγRIIaR (FcγRIIaR) [fold] | Fold FcγRIIb [1] [fold] | Fold FcγRI [2] [fold] | binding result [1]
1 | B1 | 0.307 | 0.417 |  | 
2 | B2 | 0.0859 | 0.147 |  | 
3 | B3 | 5.69 | 11.4 |  | 
4 | B4 | 98.5 | 42.3 |  | 
5 | B5 | 0.867 | 1.45 |  | 
6 | B6 | 0.081 | 0.147 |  | 
7 | B7 | 41.5 | 31.5 |  | 
8 | B8 | 0.0859 | 0.147 |  | 
9 | B9 | 0.0859 | 0.147 |  | 
10 | B10 | 1.45 | 0.797 |  | 
11 | B11 | 16.7 | 21.2 | 1.66 | 
12 | B12 | 0.902 | 0.33 |  | 
13 | B13 | 0.0859 | 0.147 |  | 
14 | B14 | 1.02 | 5.58 |  | 
15 | B15 | 0.0859 | 0.147 |  | 
16 | B16 | 3.06 | 2.37 |  | 
17 | B17 | 0.0859 | 0.147 |  | 
18 | B18 | 0.135 |  |  | no binding

Row | Binder | Fold FcγRIIaR (FcγRIIaR) [fold] | Fold FcγRIIb [1] [fold] | Fold FcγRI [2] [fold] | binding result [1]
19 | B19 | 36.5 | 11.4 |  | 
20 | B20 | 4.64 | 5.17 |  | 
21 | B21 | 1.79 | 1.17 |  | 
22 | B22 | 0.853 | 0.729 |  | 
23 | B23 | 0.756 | 0.734 |  | 
24 | B24 | 0.0554 | 0.108 |  | 
25 | B25 | 0.693 | 0.192 |  | 
26 | B26 | 0.704 | 0.147 |  | 
27 | B27 | 0.0511 | 0.0237 |  | 
28 | B28 | 0.0372 | 0.147 |  | 
29 | B29 | 0.728 | 5.11 |  | 
30 | B30 | 74 | 53.4 |  | 
31 | B31 | 0.333 | 0.55 |  | 
32 | B32 | 0.0859 | 0.147 |  | 
33 | B33 | 0.134 | 0.456 |  | 
34 | B34 | 0.0342 | 0.147 |  | 
35 | B35 | 0.0141 | 0.0644 |  | 
